Measured values from patent publication US11466066B2, “Variants of human BMP7 protein” (ELI LILLY AND COMPANY, priority 2017, dated 2022).
Marks after values point to notes of the source that are not given here.

Columns and labels:
[1] = tested on: monosodium iodoacetate (MIA)-induced rat model of OA pain; experiment: MIA rat model of osteoarthritic pain; format: in vivo
Description: The effect of human mature BMP7 protein variant F9 (SEQ ID NO: 8) may be evaluated in the monosodium iodoacetate (MIA)-induced rat model of OA pain (Bove, et. al., Osteoarthritis and Cartilage, 2003, 11: 821-830).
Briefly stated, male Lewis rats aged 7-8 weeks at the time of MIA injection may be used for this study. For induction of osteoarthritis, the rats may be anesthesized with isoflurane and given a single intra-articular injection of 0.3 mg/50 μl MIA through the infrapatellar ligament of the right knee. The left contralateral control knee may be injected with 50 μl sterile saline. The animals are treated with wild type human mature BMP7 protein at a dose of 1.0 μg/knee and human mature BMP7 protein variant F9 (SEQ ID NO: 8) at 0.175 μg and 0.7 μg/knee via intra-articular injections on day 9 and 14 post-MIA.
Pain measurements may be made by incapacitance testing on days 17, 24, 31, 38, 45, 52, 58, and 66 post-MIA injection using an incapacitance tester (Columbus Instruments International, Columbus, Ohio). Changes in hind paw weight distribution between the osteoarthritic (right) and contralateral control (left) limb may be utilized as an index of joint discomfort (measure of pain) in the osteoarthritic knee. Results may be presented as the difference in weight bearing between the contralateral control (left) and the osteoarthritic (right).

[2] = tested on: meniscal tear (MT) induced rat model of cartilage degeneration; experiment: Meniscal tear rat model of cartilage degeneration; format: in vivo
From the text: The effect of human mature BMP7 protein variant (SEQ ID NO: 8) may be evaluated using an osteoarthritic (OA) pain in the meniscal tear (MT) induced rat model of cartilage degeneration. Male Lewis rats (approximately 25 weeks of age) may be used for such a study. Briefly described, rats may be anesthetized with 3% isoflurane prior to surgery. The right knee may be flexed and a transverse medial incision is made along the proximal antero-medial aspect of the tibia exposing the medial […] ligament. The […] ligament and the joint capsule may be incised simultaneously freeing the tibial attachments of the medial meniscus. Approximately 3 mm of the meniscus may be freed from its attachment to the margin of the tibial plateau and the meniscus may be transected to simulate a complete tear. The incision may be closed with surgical glue.
The animals may be treated with wild type human mature BMP7 at a dose of 350 ng/knee or human mature BMP7 protein variant F9 (SEQ ID NO: 8) at two doses of 49 ng or 245 ng/knee in 50 μl phosphate buffered saline (PBS), pH 7.4. The treatment may be initiated 3 weeks after MT surgery and continued for […]. Animals may be administered weekly intra-articular injections of wild type human mature BMP7 or human mature BMP7 protein variant F9 (SEQ ID NO: 8) or vehicle at various doses for 5 weeks into the operated knee. Pain measurements may be made by incapacitance testing on days 18 (baseline), 25, 31, 42 and 53 post MT surgery using an incapacitance tester (Columbus Instruments International, Columbus, Ohio). Changes in hind paw weight distribution between the osteoarthritic (right) and contralateral control (left) limb may be utilized as an index of joint discomfort (measure of pain) in the osteoarthritic knee. Results may be presented as the difference in weight bearing between the contralateral control (left) and the osteoarthritic (right).

[3] = tested on: rat primary articular chondrocytes (RPACs); experiment: Chondrogenesis assay (pellet culture); format: cell-based; details: 2 weeks in culture
Description: The effect of wild type human mature BMP7 and variants thereof may be evaluated for differentiation of chondrocytes in an in vitro model utilizing rat primary articular chondrocytes (RPACs). To obtain RPACs, articular cartilage may be isolated from 2-3 day old rats. The cartilage may be digested with 0.4% collagenase for 2 hours and then the resultant cells may be washed with phosphate buffered saline and subsequently cultured in media containing DMEM, 10% FBS and 1% penicillin/streptomycin in humidified air with 5% CO2 at 37° C.
To assess the chondrogenic differentiation, a pellet culture system may be used. Approximately 2×10^5 cells from passage 2-3 may be placed in 1.5 ml tubes and centrifuged at 500 g for 10 minutes. The pellets may be cultured at 37° C. with 5% CO2 in 500 μl of medium. […] The media may be replaced twice per week for 2 weeks. After 2 weeks in culture, the pellets may be harvested and macroscopic analysis was performed by stereomicroscopic procedures. The images may be analyzed and the pellet sizes may be calculated in a 2-dimensional image.

[4] = tested on: rat surgical fracture model; experiment: Bone healing model (cortical defect); format: in vivo; details: day 35; for BMC: mean ± SEM; for % Increase From Vehicle Control: BMC
From the text: The effect of wild type human mature BMP7 and variants thereof may be evaluated on bone regeneration and repair or bone healing in a rat surgical fracture model. Animals may be ovariectomized at 6 months of age and allowed to lose bone for two months before fracture surgery. Cortical defect surgery may be performed essentially as previously described (Komatsu, et al., Endocrinology, 150:1570-1579, 2009). Briefly, the procedure involves incising the skin over the lateral femoral aspect and blunt dissection of the quadriceps to expose the distal femoral diaphysis. Cortical defects may be then generated through the anterior and posterior cortexes using a Dremel tool (Robert Bosch Tool Corp, Gerlingen, Germany) equipped with a 2 mm orthopedic drill bit (Zimmer Inc, Warsaw, Ind.). The muscles may be subsequently repositioned, and the skin may be closed with tissue adhesive. Groups of animals may be treated with various amounts of wild type human mature BMP7 or variants thereof prepared in sodium citrate buffer pH 3.0 and adsorbed to Helistat type-1 collagen sponges in a volume of 50 μl. The treatments may be administered locally at the site of defect during surgery and treated for 35 days. A control group may receive the vehicle containing the same constituents in collagen sponge without the therapeutic proteins. In vivo fracture repair and bone mineral content (BMC) may be evaluated by quantitative computed tomography (QCT) using a GE Locus Ultra CT scanner (GE Healthcare, London, Ontario, Canada) as described previously (Komatsu et al., 2008).

[5] = 16.5 μg on collagen sponge at defect site

B1: Human mature BMP7 protein variant F9 (SEQ ID NO: 8): homodimer wherein each monomeric subunit has SEQ ID NO: 8 (Y65G/I86L/F93V/N110G/Y128W), disulfide linked (protein)
chain: STGSKQRSQNRSKTPKNQEALRMANVAENSSSDQRQACKKHELYVSFRDLGWQDWIIAPEGYAAGYCEGECAFPLNSYMNATNHALVQTLVHVINPETVPKPCCAPTQLGAISVLYFDDSSNVILKKWRNMVVRACGCH
modifications: homodimer, disulfide linked
- Difference in hind paw weight bearing ([1]; 0.175 μg/knee intra-articular day 9 and 14, Day 17 post-MIA): 23.29 ± 1.31 g
- Difference in hind paw weight bearing ([1]; 0.175 μg/knee, Day 24): 24.32 ± 2.97 g
- Difference in hind paw weight bearing ([1]; 0.175 μg/knee, Day 31): 21.87 ± 2.14 g
- Difference in hind paw weight bearing ([1]; 0.175 μg/knee, Day 38): 20.82 ± 1.03^b g
- Difference in hind paw weight bearing ([1]; 0.175 μg/knee, Day 45): 19.44 ± 0.80 g
- Difference in hind paw weight bearing ([1]; 0.175 μg/knee, Day 52): 19.35 ± 0.77 ^b g
- Difference in hind paw weight bearing ([1]; 0.175 μg/knee, Day 58): 17.42 ± 3.16^b g
- Difference in hind paw weight bearing ([1]; 0.175 μg/knee, Day 66): 15.00 ± 1.84^b g
- Difference in hind paw weight bearing ([1]; 0.7 μg/knee intra-articular day 9 and 14, Day 17 post-MIA): 36.75 ± 6.45^b g
- Difference in hind paw weight bearing ([1]; 0.7 μg/knee, Day 24): 29.78 ± 8.39 g
- Difference in hind paw weight bearing ([1]; 0.7 μg/knee, Day 31): 26.62 ± 6.07 g
- Difference in hind paw weight bearing ([1]; 0.7 μg/knee, Day 38): 23.63 ± 0.90 g
- Difference in hind paw weight bearing ([1]; 0.7 μg/knee, Day 45): 21.75 ± 4.34 g
- Difference in hind paw weight bearing ([1]; 0.7 μg/knee, Day 52): 20.51 ± 3.03 g
- Difference in hind paw weight bearing ([1]; 0.7 μg/knee, Day 58): 16.72 ± 0.79^b g
- Difference in hind paw weight bearing ([1]; 0.7 μg/knee, Day 66): 13.06 ± 1.78^b g
- Difference in hind paw weight bearing ([2]; Treatment C, 49 ng/knee weekly intra-articular, Baseline (day 18 post MT surgery)): 52.48 ± 2.11 g
- Difference in hind paw weight bearing ([2]; Treatment C, 49 ng, Day 25): 49.96 ± 0.66 g
- Difference in hind paw weight bearing ([2]; Treatment C, 49 ng, Day 31): 49.52 ± 1.10^b g
- Difference in hind paw weight bearing ([2]; Treatment C, 49 ng, Day 42): 44.8 ± 3.04^b g
- Difference in hind paw weight bearing ([2]; Treatment C, 49 ng, Day 53): 45.70 ± 2.77 g
- Difference in hind paw weight bearing ([2]; Treatment D, 245 ng/knee weekly intra-articular, Baseline (day 18 post MT surgery)): 52.02 ± 2.19 g
- Difference in hind paw weight bearing ([2]; Treatment D, 245 ng, Day 25): 49.77 ± 1.00 g
- Difference in hind paw weight bearing ([2]; Treatment D, 245 ng, Day 31): 49.54 ± 2.77^b g
- Difference in hind paw weight bearing ([2]; Treatment D, 245 ng, Day 42): 42.37 ± 1.28^b g
- Difference in hind paw weight bearing ([2]; Treatment D, 245 ng, Day 53): 38.68 ± 1.68^b g
- Pellet Size ([3]; Treatment 0.014 nM): 0.67 ± 0.16 mm^2
- Pellet Size ([3]; Treatment 0.14 nM): 1.56 ± 0.46^a mm^2
- Pellet Size ([3]; Treatment 1.4 nM): 2.61 ± 0.18^a mm^2
- BMC ([4]; 2.0 μg on collagen sponge at defect site): 16.19 ± 1.09 mg
- BMC [4, 5]: 18.13 ± 2.29^a mg
- cortical area ([4]; 16.5 μg): significant increase
- % Increase From Vehicle Control ([4]; 2.0 μg): 114%
- % Increase From Vehicle Control ([4]; 16.5 μg): 128%

B2: Wild type human mature BMP7 (SEQ ID NO: 2): dimer of two glycosylated, 139 amino acid disulfide-linked proteins of about 35 kDa, SEQ ID NO: 2 (protein, listed as Homo sapiens)
chain: STGSKQRSQNRSKTPKNQEALRMANVAENSSSDQRQACKKHELYVSFRDLGWQDWIIAPEGYAAYYCEGECAFPLNSYMNATNHAIVQTLVHFINPETVPKPCCAPTQLNAISVLYFDDSSNVILKKYRNMVVRACGCH
modifications: disulfide-linked glycosylated homodimer
- Difference in hind paw weight bearing ([1]; 1.0 μg/knee intra-articular day 9 and 14, Day 17 post-MIA): 27.52 ± 2.81 g
- Difference in hind paw weight bearing ([1]; 1.0 μg/knee, Day 24): 26.05 ± 2.81 g
- Difference in hind paw weight bearing ([1]; 1.0 μg/knee, Day 31): 23.46 ± 1.23 g
- Difference in hind paw weight bearing ([1]; 1.0 μg/knee, Day 38): 22.68 ± 0.61 g
- Difference in hind paw weight bearing ([1]; 1.0 μg/knee, Day 45): 20.95 ± 0.87 g
- Difference in hind paw weight bearing ([1]; 1.0 μg/knee, Day 52): 20.37 ± 0.71 g
- Difference in hind paw weight bearing ([1]; 1.0 μg/knee, Day 58): 17.66 ± 1.79^b g
- Difference in hind paw weight bearing ([1]; 1.0 μg/knee, Day 66): 17.59 ± 2.68^b g
- Difference in hind paw weight bearing ([2]; Treatment B, 350 ng/knee weekly intra-articular, Baseline (day 18 post MT surgery)): 52.33 ± 2.45 g
- Difference in hind paw weight bearing ([2]; Treatment B, 350 ng, Day 25): 50.76 ± 1.09 g
- Difference in hind paw weight bearing ([2]; Treatment B, 350 ng, Day 31): 49.97 ± 1.10 g
- Difference in hind paw weight bearing ([2]; Treatment B, 350 ng, Day 42): 46.81 ± 1.34^b g
- Difference in hind paw weight bearing ([2]; Treatment B, 350 ng, Day 53): 47.77 ± 1.78 g
- Pellet Size ([3]; Treatment 0.02 nM): 0.64 ± 0.15 mm^2
- Pellet Size ([3]; Treatment 0.2 nM): 0.70 ± 0.03 mm^2
- Pellet Size ([3]; Treatment 2 nM): 0.83 ± 0.13 mm^2
- BMC [4, 5]: 16.25 ± 1.60 mg
- % Increase From Vehicle Control ([4]; 16.5 μg): 115%
